# Assay results as given in patent US9404098, “Method for cleaving a target RNA using a Cas6 polypeptide” (University of Georgia Research Foundation, Inc.).
# Numbering of substitutions follows the chain as printed.
# B1: del. 1-8 (ssRNA)
# RNA: GGGAAGACCAAAAUAGAAUUGAAAG
# B2: AA to GG cleavage site mutant repeat (ssRNA)
# RNA: GGGUUACAAUAAGACCAAAAUAGGGUUGAAAG
# B3: repeat nt 1-12 (ssRNA)
# RNA: GUUACAAUAAGA
# B4: last 8 nt of repeat + guide (ssRNA)
# RNA: AUUGAAAGUUGUAGUAUGCGGUCCUUGCGGCUGAGAGCACUUCAG
# B5: 3' cleavage product (repeat nt 23-30) (ssRNA)
# RNA: AUUGAAAG
# B6: DNA repeat (ssDNA)
# DNA: GTTACAATAAGACCAAAATAGAATTGAAAG
# modifications: [none]
# B7: sub. 1-8 (ssRNA)
# RNA: GGGCAAUGUUAAAGACCAAAAUAGAAUUGAAAG
# B8: del. 23-30 (ssRNA)
# RNA: GGGUUACAAUAAGACCAAAAUAG
# B9: sub. 23-30 (ssRNA)
# RNA: GGGUUACAAUAAGACCAAAAUAGAAAACUUUC
# B10: guide + first part of repeat (panel c) (ssRNA)
# RNA: GGGAUUGAAAGUUGUAGUAUGCGGUCCUUGCGGCUGAGAGCACUUCAGGUUACAAUAAGACCAAAAUAGA
# B11: CRISPR repeat RNA (ssRNA)
# RNA: GUUACAAUAAGACCAAAAUAGAAUUGAAAG
# B12: repeat-guide-repeat (R-g-R) (ssRNA)
# RNA: GGGUUCCAAUAAGACUACAAAAGAAUUGAAAGUUGUAGUAUGCGGUCCUUGCGGCUGAGAGCACUUCAGGUUCCAAUAAGACUACCAAAAGAAUUGAAAG
# Assays:
# PfCas6 (PF1131) [1] = biological target: T1, PfCas6 (PF1131) (Pyrococcus furiosus, UniProt Q8U1S4 SEQ:1-264); test: EMSA; binding abolished; up to 500 nM; conditions: tags: N-terminal 6xHis; label: 32P uniform
# T1 sequence: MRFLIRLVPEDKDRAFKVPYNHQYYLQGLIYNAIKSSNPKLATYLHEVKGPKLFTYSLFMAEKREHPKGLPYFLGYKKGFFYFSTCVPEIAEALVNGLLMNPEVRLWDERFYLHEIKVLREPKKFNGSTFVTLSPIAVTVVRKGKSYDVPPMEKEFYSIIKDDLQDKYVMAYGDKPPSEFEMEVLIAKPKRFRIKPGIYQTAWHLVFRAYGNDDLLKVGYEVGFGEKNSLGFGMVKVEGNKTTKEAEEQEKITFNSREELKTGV
# Protocol: (§1) Typically, identical reaction conditions were used to assay the ability of PfCas6 protein to bind to and to cleave substrate RNAs. These reactions were initiated by incubating 0.05 μmol of ^32P-radiolabeled RNAs (either uniformly or 5'-end-labeled) with up to 1 (as indicated in the figure legends) of PfCas6 protein in 20 mM HEPES-KOH (pH 7.0), 250 mM KCl, 0.75 mM DTT, 1.5 mM MgCl_2, 5 μg of E. coli tRNA, and 10% glycerol in a 20-μL reaction volume for 30 minutes at 70° C. Half of the reactions were directly run on native 8% polyacrylamide gels to assay RNA binding by gel mobility shift essentially as described (Baker et al., 2005. Genes & Dev. 19: 1238-1248). […] Gels were dried and the radiolabeled RNAs visualized by phosphorimaging.
# (§2) Figure 4: FIG. 4. CRISPR repeat sequence requirements for PfCas6 binding. (A) Detailed analysis of binding with a series of CRISPR-derived RNAs and mutants. The left panel illustrates the RNAs tested, with repeat (R) and invader targeting (ψ) sequences, and PfCas6 cleavage site (dashed lines) indicated. The shaded portion of j denotes an insertion, dashed block denotes an internal deletion, and The shaded portions of **, e, f, and k denote substitutions (with complementary sequence). DNA indicates a DNA repeat sequence substrate. PfCas6 binding is summarized relative to binding to the 5' cleavage product (++++). […]
# PfCas6 (PF1131) [2] = biological target: T1, PfCas6 (PF1131); test: EMSA; 0-500 nM Cas6, 70 C, 250 mM KCl, 1.5 mM MgCl2; conditions: tags: N-terminal 6xHis; label: 32P uniform
# Protocol: Figure 3: FIG. 3. Identification of the site of PfCas6 cleavage within the CRISPR repeat RNA. (A) The site of PfCas6 cleavage within the CRISPR repeat RNA was mapped by incubating 5' end labeled repeat RNA with PfCas6 nuclease and comparing the size of the 5' RNA cleavage product (arrow) with RNAse T1 (T1) and alkaline hydrolysis (OH) sequence ladders. (B) Potential secondary structure of P. furiosus repeat RNA (SEQ ID No: 238) with cleavage site indicated. (C) Analysis of cleavage of wild-type and cleavage site mutant (AA to GG) repeat RNAs with increasing concentrations (0, 1, 50, 200, and 500 nM) of PfCas6. (D) Native gel mobility shift analysis of wild-type and mutant repeat RNAs with increasing concentrations of PfCas6. The positions of the free (RNA) and protein-bound (RNP) RNAs are indicated. 5' and 3' cleavage products are indicated in both C and D. The sizes of RNA markers (M) are indicated in A and C.
# Typically, identical reaction conditions were used to assay the ability of PfCas6 protein to bind to and to cleave substrate RNAs. These reactions were initiated by incubating 0.05 μmol of ^32P-radiolabeled RNAs (either uniformly or 5'-end-labeled) with up to 1 (as indicated in the figure legends) of PfCas6 protein in 20 mM HEPES-KOH (pH 7.0), 250 mM KCl, 0.75 mM DTT, 1.5 mM MgCl_2, 5 μg of E. coli tRNA, and 10% glycerol in a 20-μL reaction volume for 30 minutes at 70° C. […]
# PfCas6 (PF1131) [3] = biological target: T1, PfCas6 (PF1131); test: EMSA; affinity similar to 5' cleavage product; conditions: tags: N-terminal 6xHis; label: 32P
# Protocol: as §1, §2
# PfCas6 (PF1131) [4] = biological target: T1, PfCas6 (PF1131); test: EMSA; up to 500 nM; conditions: tags: N-terminal 6xHis; label: 5' 32P
# Protocol: as §1, §2
# PfCas6 (PF1131) [5] = biological target: T1, PfCas6 (PF1131); test: EMSA; gel-purified; up to 500 nM; conditions: tags: N-terminal 6xHis; label: 32P uniform
# Protocol: as §1, §2
# PfCas6 (PF1131) [6] = biological target: T1, PfCas6 (PF1131); test: EMSA; 70 C; conditions: tags: N-terminal 6xHis
# Protocol: as §1
# Figure 4: FIG. 4. CRISPR repeat sequence requirements for PfCas6 binding. (A) Detailed analysis of binding with a series of CRISPR-derived RNAs and mutants. The left panel illustrates the RNAs tested, with repeat (R) and invader targeting (ψ) sequences, and PfCas6 cleavage site (dashed lines) indicated. The shaded portion of j denotes an insertion, dashed block denotes an internal deletion, and The shaded portions of **, e, f, and k denote substitutions (with complementary sequence). DNA indicates a DNA repeat sequence substrate. PfCas6 binding is summarized relative to binding to the 5' cleavage product (++++). Corresponding RNA diagrams and data panels are designated with lowercase letters. The right panels show gel mobility shift analysis of the indicated RNAs with increasing concentrations (0, 1, 50, 200, and 500 nM) of PfCas6. Substrates are uniformly radiolabeled except for those shown in panels a, b, c, and 1, which are 5'-end-labeled. (B) PfCas6 interacts with the gel-purified 5' cleavage product.
# PfCas6 K52E = biological target: T2, PfCas6 K52E (Pyrococcus furiosus, UniProt Q8U1S4 SEQ:1-264, K52E); test: cleavage_in_vitro; 500 nM; conditions: tags: N-terminal 6xHis; label: 32P (5', 3' or uniform); potential weak hairpin, mostly unstructured in solution
# T2 sequence: T1 sequence with K52E
# Protocol: (§3) RNA-binding and cleavage reactions. RNA binding and cleavage reactions were carried out as described in example 1. Briefly, 0.05 μmol of uniformly ^32P-labeled RNA was incubated in the absence (free RNA) or presence of increasing concentrations of Cas6 (as indicated in figure legends) in buffer A for 30 minutes at 65-70° C. Half of each reaction was run on 8% native polyacrylamide gels to assess RNA binding by gel mobility shift analysis. RNA cleavage was assessed by separation of the RNAs on denaturing, 7 M urea containing, 15% polyacrylamide gels following PCI extraction and ethanol precipitation. For analysis of native Cas6 cleavage activity, either ~40 μg of whole cell extract (WCE) or supernatant from an immunoprecipitation reaction (see below) was incubated with 0.05 μmol of uniformly ^32P labeled RNA for 30 minutes at 70° C. Alternatively, 10 μL of resin from an immunoprecipitation reaction (see below) was added. In this case, samples were mixed every five minutes by pipetting up and down during the 30 minute incubation at 70° C. The gels were dried and RNAs visualized by phosphor imaging. Quantitation of cleavage was performed using ImageQuant™ TL software (GE Life Sciences).
# (§4) Figure 11: FIG. 11. Cleavage activity of Cas6 mutants. […] The 5' and 3' cleavage products are indicated. (B) Purified wild type (wt) and mutant Cas6 proteins (as indicated above) were separated by SDS-PAGE. Molecular weight markers are indicated in kDa.
# (§5) Mutation of any of the three triad amino acids led to a significant decrease or complete loss of cleavage activity relative to wild type Cas6 (FIG. 11A).
# PfCas6 K52A = biological target: T3, PfCas6 K52A (Pyrococcus furiosus, UniProt Q8U1S4 SEQ:1-264, K52A); test: cleavage_in_vitro; 500 nM; conditions: tags: N-terminal 6xHis; label: 32P (5', 3' or uniform); potential weak hairpin, mostly unstructured in solution
# T3 sequence: T1 sequence with K52A
# Protocol: as §3, §4, §5
# PfCas6 Y31F = biological target: T4, PfCas6 Y31F (Pyrococcus furiosus, UniProt Q8U1S4 SEQ:1-264, Y31F); test: cleavage_in_vitro; 500 nM; conditions: tags: N-terminal 6xHis; label: 32P (5', 3' or uniform); potential weak hairpin, mostly unstructured in solution
# T4 sequence: T1 sequence with Y31F
# Protocol: as §3, §4, §5
# PfCas6 (PF1131) [7] = biological target: T1, PfCas6 (PF1131); test: footprint; nt 2-8 protected from Pb(II); nt 3, 5 and 8 from RNase A; no 3' region protection; 500 mM KCl; conditions: tags: N-terminal 6xHis; label: 32P (5', 3' or uniform); potential weak hairpin, mostly unstructured in solution
# Text: Size markers include 5' end-labeled RNA markers (M) and alkaline hydrolysis ladders (OH). Bars along right side of each gel indicate strong protections. (B) 5' end-labeled CRISPR repeat RNA was used for lead-induced and RNase A cleavage as was done in (A). […] (C) A summary of cleavage protection is shown. The Cas6 cleavage site is indicated by an asterisk (*), and the nucleotides protected from cleavage are shown by the bars above and below the sequence FIG. 10. Lead-induced and RNase A cleavage footprinting with CRISPR repeat RNA and PfCas6. (A) 3' end labeled CRISPR repeat RNA was incubated in the absence (RNA) or presence of increasing concentrations of PfCas6 (indicated in μM) and then subjected to RNase A cleavage (left panel) or lead-induced cleavage (right panel). […] Size markers include 5' end-labeled RNA markers (M) and alkaline hydrolysis ladders (OH). Bars along right side of each gel indicate strong protections. (B) 5' end-labeled CRISPR repeat RNA was used for lead-induced and RNase A cleavage as was done in (A). […] (C) A summary of cleavage protection is shown. The Cas6 cleavage site is indicated by an asterisk (*), and the nucleotides protected from cleavage are shown by the bars above and below the sequence (SEQ ID NO: 238). Figure 10:
# Specifically, nucleotides 2-8 were protected from lead induced cleavage in a Cas6 concentration dependent manner. […]
# PfCas6 (PF1131) [8] = biological target: T1, PfCas6 (PF1131); test: EMSA; binding to the 5' cleavage product formed during incubation; conditions: tags: N-terminal 6xHis; label: 32P 5' or uniform
# Protocol: as §1, §2
binder,measurement,setting,value
B1,binding result,PfCas6 (PF1131) [1],no binding
B2,binding result,PfCas6 (PF1131) [2],binds
B3,binding result,PfCas6 (PF1131) [3],binds
B4,binding result,PfCas6 (PF1131) [4],no binding
B5,binding result,PfCas6 (PF1131) [5],no binding
B6,binding result,PfCas6 (PF1131) [4],no binding
B7,binding result,PfCas6 (PF1131) [1],no binding
B8,binding result,PfCas6 (PF1131) [6]; label: 32P uniform,binds
B9,binding result,PfCas6 (PF1131) [6]; label: 32P uniform,binds
B10,binding result,PfCas6 (PF1131) [6]; label: 5' 32P,binds
B11,activity,PfCas6 K52E,> 150 fold reduction vs wild type
same,activity,PfCas6 K52A,> 40 fold reduction vs wild type
same,activity,PfCas6 Y31F,~2 fold reduction vs wild type
same,binding result,PfCas6 (PF1131) [7],binds
B12,binding result,PfCas6 (PF1131) [8],binds
